In patent US20110038881A1, “PROGNOSTIC ASSAY FOR DETERMINING T CELL RESPONSE TO HLA ANTIGENS AND USE THEREOF IN FIELD OF TISSUE TRANSPLANTATION” (priority 2007, published 2011):

B1: p31 (peptide)
chain: AHVAEQLRAYLEGTC
B2: p48 (peptide)
chain: EQRYTCHVQHEGLPKP
B3: p30 (peptide)
chain: HKWEAAHVAEQLRAY
B4: p17* (peptide)
chain: HTVQRMYGCDVGSDW
B5: p4 (peptide)
chain: PRFIAVGYVDDTQFV
B6: p51* (peptide)
chain: LTLRWEPSSQPTIPI
B7: p34* (peptide)
chain: TCVEWLRRYLENGKE
B8: p29 (peptide)
chain: ADMAAQTTKHKWEAA
B9: p46* (peptide)
chain: FQKWAAVVVPSGQEQR
B10: p5 (peptide)
chain: IAVGYVDDTQFVRFD
B11: p47 (peptide)
chain: AAVVVPSGQEQRYTC
B12: p32 (peptide)
chain: EQLRAYLEGTCVEWL
B13: p2* (peptide)
chain: MRYFFTSVSRPGRGE
B14: p27 (peptide)
chain: EDLRSWTAADMAAQT
B15: p45* (peptide)
chain: GTFQKWAAVVVPSGQ
B16: p28 (peptide)
chain: RSWTAADMAAQTTKH
B17: p16* (peptide)
chain: RGYYNQSEAGSHTVQ
B18: p49 (peptide)
chain: EGLPKPLTLRWEPSS
B19: p24 (peptide)
chain: YAYDGKDYIALKEDL
B20: p43 (peptide)
chain: LTWQRDGEDQTQDTE
B21: p44 (peptide)
chain: TELVETRPAGDGTFQ
B22: p53* (peptide)
chain: IPIVGIIAGLVLFGA
B23: p35* (peptide)
chain: VEWLRRYLENGKETL
B24: p37 (peptide)
chain: ETLQRTDAPKTHMTH
B25: p33 (peptide)
chain: RAYLEGTCVEWLRRY
B26: p41 (peptide)
chain: LSFYPAEITLTWQRD
B27: p38 (peptide)
chain: THMTHHAVSDHEATL
B28: p36 (peptide)
chain: RRYLENGKETLQRTD

How the values were obtained:
Experiment in all cases: competition binding
Conditions in all cases: modification not given
HLA-DRB1*0301 (human) = biological target: HLA-DRB1*0301 (human)
HLA-DRB1*1501 (human) = biological target: HLA-DRB1*1501 (human)
HLA-DRB1*0101 (human) = biological target: HLA-DRB1*0101 (human)
HLA-DRB1*0701 (human) = biological target: HLA-DRB1*0701 (human)
HLA-DRB1*1301 (human) = biological target: HLA-DRB1*1301 (human)
HLA-DRB1*0401 (human) = biological target: HLA-DRB1*0401 (human)
HLA-DRB1*1101 (human) = biological target: HLA-DRB1*1101 (human)
HLA-DRB3*0101 (human) = biological target: HLA-DRB3*0101 (human)
HLA-DRB5*0101 (human) = biological target: HLA-DRB5*0101 (human)
HLA-DRB4*0101 (human) = biological target: HLA-DRB4*0101 (human)

Binder	IC50 (HLA-DRB1*0301 (human))	IC50 (HLA-DRB1*1501 (human))	IC50 (HLA-DRB1*0101 (human))	IC50 (HLA-DRB1*0701 (human))	IC50 (HLA-DRB1*1301 (human))	IC50 (HLA-DRB1*0401 (human))	IC50 (HLA-DRB1*1101 (human))	IC50 (HLA-DRB3*0101 (human))	IC50 (HLA-DRB5*0101 (human))	IC50 (HLA-DRB4*0101 (human))
B1	> 100 µM	0.026 µM	0.629 µM	> 100 µM	8.06 µM	> 100 µM	3.34 µM			
B2	> 100 µM	> 100 µM	1.92 µM	29.5 µM	> 100 µM	57.4 µM	0.693 µM	20.5 µM		
B3	16.5 µM	0.938 µM	0.029 µM	0.401 µM	> 100 µM	0.118 µM	0.379 µM	0.806 µM		
B4	5.61 µM	2.83 µM	0.035 µM	1.59 µM	> 100 µM	2.12 µM	6.48 µM	0.529 µM	12 µM	
B5	12 µM		0.748 µM	0.85 µM	> 100 µM	> 100 µM	5.48 µM	0.196 µM	0.755 µM	45.7 µM
B6	> 100 µM	2.44 µM	0.525 µM	0.072 µM	> 100 µM	0.497 µM	> 100 µM	29 µM		26 µM
B7	> 100 µM	22.2 µM	> 100 µM	> 100 µM	5 µM	> 100 µM	0.245 µM	58.1 µM		
B8	> 100 µM	> 100 µM	40 µM	> 100 µM	3.84 µM	> 100 µM	> 100 µM	0.033 µM		
B9	7.35 µM	> 100 µM	0.218 µM	0.7 µM	> 100 µM	0.326 µM	0.626 µM	1.73 µM		
B10	0.316 µM	2.97 µM	2.77 µM	3.1 µM	> 100 µM	31 µM	9.22 µM		0.798 µM	> 100 µM
B11	0.98 µM	> 100 µM	2.24 µM	42.2 µM	7.48 µM	> 100 µM	68.9 µM	1.53 µM		
B12	1.84 µM	0.267 µM	0.063 µM	0.149 µM	> 100 µM	1.73 µM	0.424 µM	1.09 µM		
B13	2.84 µM	1.17 µM	0.002 µM	0.045 µM	0.399 µM		0.003 µM	> 100 µM	0.004 µM	> 100 µM
B14	> 100 µM	0.648 µM	> 100 µM	> 100 µM	> 100 µM	> 100 µM	> 100 µM	1.88 µM		
B15	> 100 µM	0.474 µM	0.004 µM		> 100 µM	0.099 µM	0.34 µM	0.045 µM		
B16	> 100 µM	> 100 µM	0.067 µM	12.8 µM	> 100 µM	1.53 µM	10.5 µM	1 µM	40.5 µM	
B17	> 100 µM	> 100 µM		0.13 µM	> 100 µM	0.494 µM	3.18 µM	> 100 µM	0.175 µM	> 100 µM
B18	> 100 µM	50.2 µM	0.497 µM	71 µM	> 100 µM	0.497 µM	2.06 µM	4.69 µM		33.9 µM
B19	> 100 µM	> 100 µM	0.035 µM	4.47 µM	> 100 µM	3.87 µM	0.184 µM	> 100 µM		> 100 µM
B20	97.5 µM	> 100 µM	> 100 µM	> 100 µM	> 100 µM	> 100 µM	> 100 µM		4.1 µM	
B21	> 100 µM	> 100 µM	4.47 µM	2.16 µM	> 100 µM	70.4 µM	8.75 µM			
B22		0.283 µM	0.026 µM	0.179 µM	1.37 µM	> 100 µM	> 100 µM			
B23	> 100 µM	0.245 µM	0.598 µM	> 100 µM	8.06 µM	> 100 µM	0.251 µM			
B24	> 100 µM	> 100 µM	2 µM	3.13 µM	> 100 µM	60 µM	> 100 µM	27.6 µM		
B25	34.9 µM	4.74 µM	0.025 µM	0.637 µM	13.4 µM	9.17 µM	0.872 µM	8.94 µM		12.6 µM
B26	> 100 µM	> 100 µM	0.05 µM	> 100 µM	> 100 µM	0.917 µM	2.35 µM			
B27	> 100 µM	> 100 µM	8 µM	53.7 µM	> 100 µM	> 100 µM	> 100 µM			
B28	> 100 µM	69 µM	0.704 µM	> 100 µM	11.6 µM	28 µM	0.738 µM	4.85 µM		
